Measured values published in patent US20250057918A1 (YALE UNIVERSITY, published 2025).

T1: human IL-18BP (amino acids 31-194) (human, UniProt O95998 31-194, biotinylated on the AviTag (BirA ligase) where immobilized or used for staining)
T1 construct: Secreted decoy receptor; made in insect cells (gp67 signal peptide); also called hIL-18BP
T1 sequence: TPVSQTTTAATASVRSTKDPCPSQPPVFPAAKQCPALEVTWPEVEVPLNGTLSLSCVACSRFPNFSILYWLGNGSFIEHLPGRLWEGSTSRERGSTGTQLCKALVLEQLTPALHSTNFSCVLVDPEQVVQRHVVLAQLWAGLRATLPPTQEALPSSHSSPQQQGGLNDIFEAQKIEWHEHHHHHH

T2: IL-18 receptor (IL-18R) on HEK-Blue IL-18 reporter cells (UniProt Q13478 19-541; O95256 20-599, limits assumed)
T2 sequence (looked up) 1: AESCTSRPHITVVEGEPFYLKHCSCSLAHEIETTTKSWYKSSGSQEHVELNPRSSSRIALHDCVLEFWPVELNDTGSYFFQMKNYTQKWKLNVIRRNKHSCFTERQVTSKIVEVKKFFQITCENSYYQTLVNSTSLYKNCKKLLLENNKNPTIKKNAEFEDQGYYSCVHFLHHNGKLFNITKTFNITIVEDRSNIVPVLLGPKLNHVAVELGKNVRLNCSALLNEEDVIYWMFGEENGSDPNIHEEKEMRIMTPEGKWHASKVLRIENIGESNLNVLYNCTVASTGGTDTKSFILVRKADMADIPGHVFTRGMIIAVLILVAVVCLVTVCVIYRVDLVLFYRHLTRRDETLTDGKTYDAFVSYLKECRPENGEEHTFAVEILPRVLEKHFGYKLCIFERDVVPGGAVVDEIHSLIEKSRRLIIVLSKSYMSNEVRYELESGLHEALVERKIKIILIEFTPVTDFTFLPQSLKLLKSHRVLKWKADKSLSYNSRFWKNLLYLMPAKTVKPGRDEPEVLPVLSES
T2 sequence (looked up) 2: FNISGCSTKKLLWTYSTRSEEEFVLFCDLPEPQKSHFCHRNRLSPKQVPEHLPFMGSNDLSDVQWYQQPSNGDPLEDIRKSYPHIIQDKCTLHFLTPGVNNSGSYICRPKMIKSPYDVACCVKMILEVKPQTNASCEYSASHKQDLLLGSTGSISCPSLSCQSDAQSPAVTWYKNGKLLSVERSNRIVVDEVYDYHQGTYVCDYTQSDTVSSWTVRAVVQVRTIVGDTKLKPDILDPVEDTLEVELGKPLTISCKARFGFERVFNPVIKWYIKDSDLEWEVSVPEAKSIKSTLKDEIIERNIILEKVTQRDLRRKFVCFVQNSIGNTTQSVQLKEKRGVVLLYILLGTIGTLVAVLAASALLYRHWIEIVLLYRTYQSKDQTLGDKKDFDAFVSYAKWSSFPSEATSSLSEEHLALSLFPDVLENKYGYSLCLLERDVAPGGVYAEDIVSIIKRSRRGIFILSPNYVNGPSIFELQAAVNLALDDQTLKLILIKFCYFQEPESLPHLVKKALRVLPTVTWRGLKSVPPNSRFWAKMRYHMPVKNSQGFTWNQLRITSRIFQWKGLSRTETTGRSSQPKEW

T3: mouse IL-18BP (amino acids 31-194) (mouse, UniProt Q9Z0M9 29-193, biotinylated on the AviTag (BirA ligase))
T3 construct: Secreted decoy receptor; made in Expi293 cells (H7 signal peptide); the stated range is the same as for the human protein; also called mIL-18BP
T3 sequence: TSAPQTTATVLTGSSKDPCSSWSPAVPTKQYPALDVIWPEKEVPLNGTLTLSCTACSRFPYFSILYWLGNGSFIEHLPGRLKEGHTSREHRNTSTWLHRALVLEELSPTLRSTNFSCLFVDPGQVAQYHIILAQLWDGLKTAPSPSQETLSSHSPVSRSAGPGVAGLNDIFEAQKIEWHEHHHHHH

T4: mouse IL-18Rα ectodomain (amino acids 19-329) (mouse, UniProt Q61098 19-329, biotinylated on the AviTag (BirA ligase))
T4 construct: range 19-329; Secreted from Expi293 cells (H7 signal peptide); also called mIL-18Rα; Ra
T4 sequence: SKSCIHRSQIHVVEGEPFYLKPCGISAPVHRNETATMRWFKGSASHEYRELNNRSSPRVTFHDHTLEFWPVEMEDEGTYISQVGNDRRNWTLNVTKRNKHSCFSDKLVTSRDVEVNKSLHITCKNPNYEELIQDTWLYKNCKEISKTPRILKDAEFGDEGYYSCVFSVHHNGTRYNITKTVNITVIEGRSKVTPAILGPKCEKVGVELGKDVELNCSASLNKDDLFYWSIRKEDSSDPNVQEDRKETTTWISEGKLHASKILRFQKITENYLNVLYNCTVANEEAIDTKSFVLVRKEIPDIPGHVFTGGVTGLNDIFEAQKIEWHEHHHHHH


Assays:
[1] = biological target: T1, human IL-18BP (amino acids 31-194); test: SPR; KD BP / KD Ra normalized to WT IL-18
[2] = biological target: T2, IL-18 receptor (IL-18R) on HEK-Blue …; test: cell-based or functional assay
[3] = biological target: T1, human IL-18BP (amino acids 31-194); test: on-yeast isotherms; KD IL-18BP / KD IL-18Rα (20 µM used for NBD)
[4] = biological target: T1, human IL-18BP (amino acids 31-194); test: on-yeast isotherms; KD IL-18BP / KD IL-18Rα; on-yeast isotherms; ratio of two KDs
[5] = biological target: T1, human IL-18BP (amino acids 31-194); test: SPR; KD IL-18BP / KD IL-18Rα; SPR; ratio of two KDs
Method: (§1) Experiments were conducted using a Biacore™ T100 (Protein analysis interaction system) and carried out at 25° C. Biotinylated IL-18Rα or TL-18BP were immobilized onto a Biacore™ biotin capture chip (Series S CAP sensor chip, GE Healthcare) to yield an Rmax of ˜50 RU (IL-18Rα) or ˜10 RU (IL-18BP). Measurements were made with serial dilutions of the IL-18 variants in HEPES buffered Saline-P+ buffer (10 mM HEPES pH 7.4, 150 mM NaCl, 0.005% surfactant P20). The surface was regenerated by three 60-see injections of regeneration buffer (3/4 (v/v) 8M guanidine hydrochloride with 1/4 (v/v) 1M sodium hydroxide). Experiments were performed in multiple channels simultaneously for increased observations. All data were analyzed with the Biacore™ T100 evaluation software version 2.0 with a 1:1 Langmuir binding model.
To additionally characterize the receptor binding activities of the DR-IL-18 variants, the cytokines were expressed recombinantly and surface plasmon resonance for IL-18Rα and IL-18BP was performed (see FIG. 5B for representative traces).

[6] = biological target: T3, mouse IL-18BP (amino acids 31-194); test: as above
Method: By contrast, very little binding is observed with the same variants and mIL-18BP (right). (FIG. 11B) Representative surface plasmon resonance sensorgrams between immobilized biotinylated mIL-18BP and the murine DR-IL-18 variants.
as §1

[7] = biological target: T4, mouse IL-18Rα ectodomain (amino acids …); test: flow cytometry, mIL-18Rα titrated on yeast-displayed murine IL-18 variant (binding isotherm, %Max)
[8] = biological target: T3, mouse IL-18BP (amino acids 31-194); test: on-yeast isotherms; KD IL-18BP / KD IL-18Rα (10 µM used for NBD); on-yeast isotherms; 10 µM put in for NBD

Binder	IL-18 BP:Ra Dissociation Constant Ratio [1]	EC50 (read off the curve); HEK-Blue IL-18 SEAP reporter, OD 655 nM [2] [nM]	KD ratio: IL-18BP/IL-18Rα [3]	KD ratio: IL-18BP/IL-18Rα [6]	KD ratio: IL-18BP/IL-18Rα [8]	other results
6-12 (ligand, recombinant with C-terminal hexahistidine tag in SPR and cell assays; also called h6-12; version 2.0 human DR-IL-18 variant) YFGKLESKLSVIRNLNDQVLFIDQGNRPLFEDMTDSDCRDNAPRTIFIISKYSDSLARGLAVTISVKCEKISTLSCENKIISFKEMNPPDNIKDTKSDIIFFQRDVPGHSRKMQFESSSYEGYFLACEKERDLFKLILKKEDELGDRSIMFTVQNED	> 9.32e+06	~0.6	1200	–	–	–
hA8 (ligand, also called human DR-IL-18 variant A8) YFGKLESRLSVIRNLNDQVLFIDQGNRPLFEDMTDSDCRDNAPRTIFIISKYKDKQPRAQAVTISVKCEKISTLSCENKIISFKEMNPPDNIKDTKSDIIFFQRDVPGHKHKMQFESSSYEGYFLACEKERDLFKLILKKEDELGDRSIMFTIQNED	–	–	> 347	–	–	–
hH3 (ligand) RFGKLESRLSVIRNLNDQVLFIDQGNRPLFEDMTDSDCRDNAPRTIFIISTYKDSQPRGKAVTISVKCEKISTLSCENKIISFKEMNPPDNIKDTKSDIIFFQRDVPGHKHKMQFESSSYEGYFLACEKERDLFKLILKKEDELGDRSIMFTVQNED	–	–	> 239	–	–	–
hCS3 (ligand, recombinant with C-terminal hexahistidine tag in SPR and cell assays) RFGKLESKLSVIRNLNDQVLFIDQGNRPLFEDMTDSDCRDNAPRTIFIISTYKDSQPRGKAVTISVKCEKISTLSCENKIISFKEMNPPDNIKDTKSDIIFFQRDVPGHKHKMQFESSSYEGYFLACEKERDLFKLILKKEDELGDRSIMFTVQNED	4350	–	–	–	–	KD ratio: IL-18BP/IL-18Rα [4]: 103; KD ratio: IL-18BP/IL-18Rα [5]: 2.27
6-27 (ligand, recombinant with C-terminal hexahistidine tag in SPR and cell assays; also called h6-27; version 2.0 human DR-IL-18 variant) YFGKLESKLSVIRNLNDQVLFIDQGNRPLFEDMTDSDCRDNAPRTIFIISKYSDSRARGLAVTISVKCEKISTLSCENKIISFKEMNPPDNIKDTKSDIIFFARSVPGHGRKTQFESSSYEGYFLACEKERDLFKLILKKEDELGDRSIMFTVQNED	> 5.86e+06	~1	480	–	–	–
6-31 (ligand, recombinant with C-terminal hexahistidine tag in SPR and cell assays; also called h6-31; version 2.0 human DR-IL-18 variant) YFGKLESKLSVIRNLNDQVLFIDQGNRPLFEDMTDSDCRDNAPRTIFIISKYGDSGARGLAVTISVKCEKISTLSCENKIISFKEMNPPDNIKDTKSDIIFFERDVPGHSGKVQFESSSYEGYFLACEKERDLFKLILKKEDELGDRSIMFTVQNED	> 1.06e+06	~4	490	–	–	–
hB9 (ligand) RFGKHESKLSVIRNLNDQVLFIDQGNRPLFEDMTDSDCRDNAPRTIFIISTYRDSQPRGKAVTISVKCEKISTLSCENKIISFKEMNPPDNIKDTKSDIIFFERNVPGHKYKMQFESSSYEGYFLACEKERDLFKLILKKEDELGDRSIMFTVQNED	–	–	> 157	–	–	–
mB1 (ligand, recombinant with C-terminal hexahistidine tag in SPR) HFGRLHCTTAVIRNINDQVLFVDKRQPVFEDMTDIDQSASEPQTRLIIYGYADSDARAKAVTLSVKDSKMSTLSCKNKIISFEEMDPPENIDDIQSDLIFFQKSVPGHNKMEFESSLYEGHFLACQKEDDAFKLILKKKDENGDKSVMFTVTNLHQS	–	–	–	21000	> 559	EC50 (read off the curve) [7]: ~20 nM
mC1 (ligand, recombinant with C-terminal hexahistidine tag in SPR) NFGRLHCTTAVIRNINDQVLFVDKRQPVFEDMTDIDQSASEPQTRLIIYAYVDRRLRGKAVTLSVKDSKMSTLSCKNKIISFEEMDPPENIDDIQSDLIFFQKKVPGHNKMEFESSLYEGHFLACQKEDDAFKLILKKKDENGDKSVMFTLTNLHQS	–	–	–	26300	> 233	–
mCS1 (ligand, recombinant with C-terminal hexahistidine tag in SPR) NFGRLHCTTAVIRNINDQVLFVDKRQPVFEDMTDIDQSASEPQTRLIIYGYADSRVRGKAVTLSVKDSKMSTLSCKNKIISFEEMDPPENIDDIQSDLIFFQKRVPGHNKMEFESSLYEGHFLACQKEDDAFKLILKKKDENGDKSVMFTLTNLHQS	–	–	–	7040	> 935	EC50 (read off the curve) [7]: ~10 nM
